Data: patent publication US20240270857A1 (CHIA TAI TIANQING PHARMACEUTICAL GROUP, published 2024)
Numbering of substitutions follows the chain as printed.

T1: IL-36R naturally expressed on OVCAR8 cells and on normal human epidermal keratinocytes (NHK cells) (human, UniProt Q9HB29 20-575)
T1 sequence (looked up): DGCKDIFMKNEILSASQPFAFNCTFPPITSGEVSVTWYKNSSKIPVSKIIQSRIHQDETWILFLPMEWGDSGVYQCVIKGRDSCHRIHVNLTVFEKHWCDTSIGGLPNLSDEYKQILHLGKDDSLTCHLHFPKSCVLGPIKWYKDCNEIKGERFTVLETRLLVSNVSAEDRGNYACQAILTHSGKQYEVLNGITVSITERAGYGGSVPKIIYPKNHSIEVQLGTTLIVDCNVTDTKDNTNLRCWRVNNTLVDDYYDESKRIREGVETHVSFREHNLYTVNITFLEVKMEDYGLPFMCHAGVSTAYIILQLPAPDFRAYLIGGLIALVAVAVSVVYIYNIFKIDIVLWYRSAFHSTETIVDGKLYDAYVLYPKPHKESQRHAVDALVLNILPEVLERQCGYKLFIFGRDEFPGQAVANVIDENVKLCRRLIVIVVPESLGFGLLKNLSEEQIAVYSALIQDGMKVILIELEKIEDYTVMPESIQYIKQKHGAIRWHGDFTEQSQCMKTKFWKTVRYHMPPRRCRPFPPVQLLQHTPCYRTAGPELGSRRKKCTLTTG

T2: cynomolgus IL-36R overexpressed on 293T-CynoIL36R-NFκB cells (cynomolgus monkey)
T2 construct: Entry includes the signal peptide; also called monkey IL-36R
T2 chain: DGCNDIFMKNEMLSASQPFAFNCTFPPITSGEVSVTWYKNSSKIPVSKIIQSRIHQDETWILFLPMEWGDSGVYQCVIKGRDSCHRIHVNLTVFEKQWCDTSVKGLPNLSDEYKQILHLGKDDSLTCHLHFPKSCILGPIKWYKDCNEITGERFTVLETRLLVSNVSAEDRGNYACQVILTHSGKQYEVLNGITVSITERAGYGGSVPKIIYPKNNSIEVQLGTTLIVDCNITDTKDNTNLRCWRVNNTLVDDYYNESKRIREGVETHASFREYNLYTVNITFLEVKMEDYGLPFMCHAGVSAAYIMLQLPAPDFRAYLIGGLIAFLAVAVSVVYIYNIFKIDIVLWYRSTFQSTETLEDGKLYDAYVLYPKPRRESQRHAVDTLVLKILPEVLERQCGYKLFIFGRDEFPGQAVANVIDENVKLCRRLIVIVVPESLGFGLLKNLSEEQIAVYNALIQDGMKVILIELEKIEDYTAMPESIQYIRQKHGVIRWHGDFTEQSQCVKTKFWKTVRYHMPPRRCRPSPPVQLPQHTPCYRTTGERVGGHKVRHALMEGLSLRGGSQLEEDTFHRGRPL

T3: Human IL-1Rrp2/IL-1R6 protein, His Tag (ACROBiosystems, IL2-H52H6) (human, UniProt Q9HB29 20-335)
T3 construct: Bought protein; the soluble protein is likely only the extracellular part; also called hIL-36R; human IL36R antigen; not shown: His tag
T3 sequence: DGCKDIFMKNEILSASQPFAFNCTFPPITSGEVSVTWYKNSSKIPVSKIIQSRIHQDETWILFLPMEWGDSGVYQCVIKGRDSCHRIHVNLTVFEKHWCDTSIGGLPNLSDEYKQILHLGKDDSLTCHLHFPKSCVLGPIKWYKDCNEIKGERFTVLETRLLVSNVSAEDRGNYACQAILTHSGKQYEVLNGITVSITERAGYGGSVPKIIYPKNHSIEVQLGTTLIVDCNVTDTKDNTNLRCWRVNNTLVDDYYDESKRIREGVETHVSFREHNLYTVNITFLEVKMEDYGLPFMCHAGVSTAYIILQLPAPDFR

B1: BI655130 (antibody, human IgG1, kappa, L234A L235A)
heavy: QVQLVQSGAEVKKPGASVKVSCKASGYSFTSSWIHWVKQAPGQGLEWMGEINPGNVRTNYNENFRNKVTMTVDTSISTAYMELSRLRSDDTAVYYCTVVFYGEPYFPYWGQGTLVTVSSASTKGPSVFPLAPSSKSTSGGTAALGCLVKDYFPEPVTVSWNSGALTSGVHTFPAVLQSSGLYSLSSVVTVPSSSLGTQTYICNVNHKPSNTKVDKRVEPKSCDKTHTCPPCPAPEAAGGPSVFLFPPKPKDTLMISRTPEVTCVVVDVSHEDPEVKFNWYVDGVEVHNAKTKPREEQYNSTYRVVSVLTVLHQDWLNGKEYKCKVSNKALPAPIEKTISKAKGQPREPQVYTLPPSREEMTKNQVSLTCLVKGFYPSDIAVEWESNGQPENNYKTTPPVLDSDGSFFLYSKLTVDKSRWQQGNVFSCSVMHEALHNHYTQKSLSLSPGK
light: QIVLTQSPGTLSLSPGERATMTCTASSSVSSSYFHWYQQKPGQAPRLWIYRTSRLASGVPDRFSGSGSGTDFTLTISRLEPEDAATYYCHQFHRSPLTFGAGTKLEIKRTVAAPSVFIFPPSDEQLKSGTASVVCLLNNFYPREAKVQWKVDNALQSGNSQESVTEQDSKDSTYSLSSTLTLSKADYEKHKVYACEVTHQGLSSPVTKSFNRGEC
notes: also called Spesolimab
B2: hz72C1-1.2 (antibody, human IgG4 S228P, kappa)
heavy: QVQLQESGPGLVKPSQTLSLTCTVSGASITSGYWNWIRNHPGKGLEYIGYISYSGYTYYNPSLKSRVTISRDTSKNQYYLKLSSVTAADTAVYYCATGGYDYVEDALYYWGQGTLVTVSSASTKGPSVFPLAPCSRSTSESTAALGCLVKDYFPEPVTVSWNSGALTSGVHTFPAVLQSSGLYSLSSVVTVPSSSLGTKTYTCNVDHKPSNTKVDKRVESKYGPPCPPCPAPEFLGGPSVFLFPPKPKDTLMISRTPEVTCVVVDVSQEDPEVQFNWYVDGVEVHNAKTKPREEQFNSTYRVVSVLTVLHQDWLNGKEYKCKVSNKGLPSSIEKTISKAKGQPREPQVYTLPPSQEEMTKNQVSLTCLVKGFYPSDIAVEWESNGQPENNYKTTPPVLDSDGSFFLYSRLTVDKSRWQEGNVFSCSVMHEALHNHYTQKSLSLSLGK
light: DIQMTQSPSSLSASVGDRVTITCRASSNVRYMYWYQQKPGKAPKLWIYLTSNLASGVPSRFSGSGSGTSYTLTISSLQPEDFATYYCQQFTTSPYTFGQGTKLEIKRTVAAPSVFIFPPSDEQLKSGTASVVCLLNNFYPREAKVQWKVDNALQSGNSQESVTEQDSKDSTYSLSSTLTLSKADYEKHKVYACEVTHQGLSSPVTKSFNRGEC
notes: Humanized, human IgG4 / kappa
B3: hz72C1-1.1 (antibody, human IgG4 S228P, kappa)
heavy: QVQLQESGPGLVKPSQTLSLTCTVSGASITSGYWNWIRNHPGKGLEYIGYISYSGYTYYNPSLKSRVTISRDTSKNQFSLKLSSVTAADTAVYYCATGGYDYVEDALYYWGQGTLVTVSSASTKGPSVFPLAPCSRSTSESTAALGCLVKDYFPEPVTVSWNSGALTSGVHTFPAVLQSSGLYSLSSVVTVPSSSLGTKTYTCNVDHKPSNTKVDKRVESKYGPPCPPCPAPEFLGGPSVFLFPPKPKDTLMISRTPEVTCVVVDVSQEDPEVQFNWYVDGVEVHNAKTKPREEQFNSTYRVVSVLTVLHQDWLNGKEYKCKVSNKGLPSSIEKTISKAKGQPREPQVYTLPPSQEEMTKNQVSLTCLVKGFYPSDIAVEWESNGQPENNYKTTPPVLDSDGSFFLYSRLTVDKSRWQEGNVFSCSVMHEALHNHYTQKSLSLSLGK
light: B2 light
notes: Humanized, human IgG4 / kappa; also called humanized 72C1 antibody 1.1
B4: hz72C1-2.2 (antibody, human IgG4 S228P, kappa)
heavy: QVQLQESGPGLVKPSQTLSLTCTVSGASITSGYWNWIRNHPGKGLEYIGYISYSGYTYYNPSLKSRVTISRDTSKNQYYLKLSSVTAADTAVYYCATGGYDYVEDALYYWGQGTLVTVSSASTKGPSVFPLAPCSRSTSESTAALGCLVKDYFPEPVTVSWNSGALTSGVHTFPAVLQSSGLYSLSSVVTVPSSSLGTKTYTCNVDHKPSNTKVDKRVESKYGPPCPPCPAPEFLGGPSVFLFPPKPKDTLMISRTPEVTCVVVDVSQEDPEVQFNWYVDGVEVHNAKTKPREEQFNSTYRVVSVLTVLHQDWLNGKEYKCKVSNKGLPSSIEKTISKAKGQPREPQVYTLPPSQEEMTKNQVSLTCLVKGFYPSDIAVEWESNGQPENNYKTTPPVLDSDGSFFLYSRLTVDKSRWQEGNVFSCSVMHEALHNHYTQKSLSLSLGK
light: B2 light with F90Y
notes: Humanized, human IgG4 / kappa
B5: hz72C1-2.3 (antibody, human IgG4 S228P, kappa)
heavy: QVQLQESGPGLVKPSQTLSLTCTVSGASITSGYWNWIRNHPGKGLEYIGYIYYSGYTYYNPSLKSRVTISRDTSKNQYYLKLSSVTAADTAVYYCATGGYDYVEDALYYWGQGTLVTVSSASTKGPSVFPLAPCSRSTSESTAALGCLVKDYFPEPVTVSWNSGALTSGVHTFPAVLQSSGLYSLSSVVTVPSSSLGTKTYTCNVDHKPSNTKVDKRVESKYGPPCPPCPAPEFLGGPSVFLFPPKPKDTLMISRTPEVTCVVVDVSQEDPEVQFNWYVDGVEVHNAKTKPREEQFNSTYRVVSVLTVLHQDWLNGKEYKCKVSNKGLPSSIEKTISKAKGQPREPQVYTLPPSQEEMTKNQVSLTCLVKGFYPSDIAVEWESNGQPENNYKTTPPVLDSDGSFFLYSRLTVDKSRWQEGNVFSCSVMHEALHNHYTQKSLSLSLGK
light: B2 light with F90Y
notes: Humanized, human IgG4 / kappa
B6: hz72C1-2.1 (antibody, human IgG4 S228P, kappa)
heavy: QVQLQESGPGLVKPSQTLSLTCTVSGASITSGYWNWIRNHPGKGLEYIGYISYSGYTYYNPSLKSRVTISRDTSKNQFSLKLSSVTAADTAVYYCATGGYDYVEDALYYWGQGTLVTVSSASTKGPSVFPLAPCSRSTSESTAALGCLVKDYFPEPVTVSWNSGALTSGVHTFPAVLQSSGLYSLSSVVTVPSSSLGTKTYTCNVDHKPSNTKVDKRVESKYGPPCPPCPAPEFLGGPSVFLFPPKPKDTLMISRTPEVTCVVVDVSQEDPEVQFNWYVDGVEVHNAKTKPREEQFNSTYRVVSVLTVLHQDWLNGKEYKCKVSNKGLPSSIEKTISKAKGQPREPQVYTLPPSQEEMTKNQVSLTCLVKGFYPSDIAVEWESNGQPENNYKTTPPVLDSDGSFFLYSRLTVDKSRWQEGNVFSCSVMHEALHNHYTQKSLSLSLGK
light: B2 light with F90Y
notes: Humanized, human IgG4 / kappa
B7: hz72C1-1.3 (antibody, human IgG4 S228P, kappa)
heavy: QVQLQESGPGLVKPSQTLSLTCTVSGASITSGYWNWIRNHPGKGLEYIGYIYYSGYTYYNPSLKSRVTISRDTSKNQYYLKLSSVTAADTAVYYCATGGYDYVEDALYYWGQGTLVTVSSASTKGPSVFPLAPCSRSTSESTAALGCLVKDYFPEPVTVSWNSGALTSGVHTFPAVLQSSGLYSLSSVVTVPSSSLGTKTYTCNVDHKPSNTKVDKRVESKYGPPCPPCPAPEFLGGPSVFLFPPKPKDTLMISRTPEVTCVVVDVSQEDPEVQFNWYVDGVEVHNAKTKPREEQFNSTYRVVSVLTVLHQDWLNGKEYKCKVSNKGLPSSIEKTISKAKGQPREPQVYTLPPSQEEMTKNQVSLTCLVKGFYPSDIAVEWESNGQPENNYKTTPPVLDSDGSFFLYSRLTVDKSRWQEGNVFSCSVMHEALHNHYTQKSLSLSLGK
light: B2 light
notes: Humanized, human IgG4 / kappa
B8: hz84C4-2.5 (antibody, human IgG4 S228P, kappa, V domains shown)
VH: QVQLVQSGAEVKKPGASVKVSCKVSGYFFTSYWMNWVNQAPGQGLEWMGMIHPYDSETRLAQKFKGRVTMTVDKSTSTVYMELSSLRSEDTAVYYCASSTTAFAYWGQGTLVTVSS
VL: DIQMTQSPSSLSASVGDRVTITCRASQDIGNALNWLQQKPGKAPKRLIYATSSLDPGVPSRFSGSRSGTDYTLTISSLQPEDFATYYCLQYASSPYTFGQGTKVEIKR
notes: Humanized, human IgG4 / kappa

molecular target: T1, IL-36R naturally expressed on OVCAR8 …; assay: cell-based or functional assay

Row | IC50 (M); hIL36α; IL-8 production | IC50 (M); hIL36αβγ; IL-8 production | IC50 (M); hIL36β; IL-8 production | IC50 (M); hIL36γ; IL-8 production | Maximum inhibition rate %; hIL36α; IL-8 production | Maximum inhibition rate %; hIL36αβγ; IL-8 production | Maximum inhibition rate %; hIL36β; IL-8 production | Maximum inhibition rate %; hIL36γ; IL-8 production | Binder
1 | 4.34e-11 M | 4.88e-11 M | 1.57e-11 M | 1.42e-11 M | 99.8% | 99.9% | 99.7% | 99.7% | B1
2 | 6.21e-11 M | 8.82e-11 M | 2.61e-11 M | 1.38e-11 M | 98.9% | 97.9% | 98.2% | 98.2% | B2
3 | 3.02e-11 M | 9.17e-11 M | 4.11e-11 M | 2.59e-11 M | 99% | 97.5% | 98.4% | 98.2% | B3
4 | 1.94e-10 M | 2.3e-10 M | 1.45e-10 M | 7.6e-11 M | 98.5% | 97.1% | 98% | 97.7% | B4
5 | 2.17e-10 M | 3.58e-10 M | 1.67e-10 M | 5.31e-11 M | 98.1% | 95% | 97.9% | 97.7% | B5
6 | 1.43e-10 M | 3.97e-10 M | 9.9e-11 M | 8.27e-11 M | 98.6% | 96.4% | 98.3% | 97.8% | B6
7 | 4.08e-11 M | 8.4e-11 M | 1.6e-11 M | 2.42e-11 M | 99% | 97.7% | 98.4% | 98.3% | B7

molecular target: T1, IL-36R naturally expressed on OVCAR8 …; assay: cell-based or functional assay; remark: another data set of the same source

Row | IC50 (M); hIL36α; IL-8 production | IC50 (M); hIL36αβγ; IL-8 production | IC50 (M); hIL36β; IL-8 production | IC50 (M); hIL36γ; IL-8 production | Maximum inhibition rate %; hIL36α; IL-8 production | Maximum inhibition rate %; hIL36αβγ; IL-8 production | Maximum inhibition rate %; hIL36β; IL-8 production | Maximum inhibition rate %; hIL36γ; IL-8 production | Binder
8 | 1.6e-11 M | 1.42e-11 M | 2.45e-11 M | 8.12e-12 M | 99.6% | 99.9% | 99.1% | 100% | B1
9 | 6.45e-12 M | 4.01e-12 M | 7.06e-12 M | 6.62e-12 M | 100% | 99.2% | 99.4% | 99.7% | B8

Molecular target: T2, cynomolgus IL-36R overexpressed on …
Assay: FACS on 293T-CynoIL36R-NFκB cells, ratio of MFI to background MFI
Procedure: After the cells was washed with PBS, the cells were resuspended with 100 μL of PBS and then the fluorescence signal was detected using a flow cytometer (BD, Accuri C6). […] The ratio was the ratio of mean fluorescence intensity (MFI) of the experimental group/the background MFI, and the resulting data were analyzed using GraphPad Prism.
(§1) Affinity, binding and blocking assays for humanized antibodies hz72C1-1.1, hz72C1-1.2, hz72C1-1.3, hz72C1-2.1, hz72C1-2.2 and hz72C1-2.3 as well as hz84C4-1.1, hz84C4-1.2, hz84C4-1.3, hz84C4-1.4, hz84C4-1.5, hz84C4-2.1, hz84C4-2.2, hz84C4-2.3, hz84C4-2.4 and hz84C4-2.5 were performed according to the methods of Example 4, Example 5. Example 6, Example 7 and Example 8.

Row | EC50 | Binder
10 | 5.64 nM | B1
11 | ~4.94 nM | B2
12 | 5.21 nM | B3
13 | 7.25 nM | B4
14 | 4.84 nM | B5
15 | 5.58 nM | B6
16 | 5.76 nM | B7

molecular target: T3, Human IL-1Rrp2/IL-1R6 protein, His Tag …; assay: BLI (ForteBio Octet), antibody on ProA sensor, 1:1 model
Procedure: The affinity of anti-IL-36R antibodies to CynoIL36R-ECD mFc and human IL-1Rrp2/IL-IR6 protein, His Tag (ACROBiosystems, IL2-H52H6) was measured by a ForteBio molecular interaction instrument. […] And then the biosensor was used to bind CynoIL36R-ECD mFc or human IL-1Rrp2/IL-1R6 protein, His Tag which was diluted by a gradient (the initial concentration was 200 nM, 2-fold gradient dilution), the response signals were detected in real time using a Fortebio molecular interaction instrument (SARTORIUS, octet red 96e), and association and dissociation curves were obtained. After the completion of dissociation in each cycle, the biosensor was regenerated for the next capture; the procedure was repeated until the affinity of the different anti-IL-36R antibodies for IL-36R was determined. The resulting data were analyzed by Fortebio Data Analysis 11.0 software in a 1:1 (Langmuir) binding model to determine kₐ (kₒₙ) and kd (koff) values, and the dissociation constant KD was calculated by KD=kd/kₐ. The detection method essentially followed the manufacturer's recommendations, and more information could be found at www.fortebio.com.
as §1

Row | Kd | koff | kon | Binder
17 | 0.713 nM | 5.84e-05 s⁻¹ | 81900 M⁻¹ s⁻¹ | B1
18 | 1.44 nM | 0.000138 s⁻¹ | 96400 M⁻¹ s⁻¹ | B8
